Source: a protein production outcome set (Wang et al. 2014)

Experiment: label from the status in PepcDB records

Row | Sequence | protein production
1 | MPKWTPYKRHPGVYEYQTKKGKRFGVRRTYDDAMGERKEFSKSGFIHWQDADIEIKRFEAKLVSGEVSGSLANRMTIDQYYQQMAKRKMKMGIWRESTARANGNFYSKYLKPAFGKTPLQDVSRAKYQRFLDELSQSGLALTTVHTIDAVMKSIMNAAEFEDVIDKNRLRGMQINGKAPRNKDLEPHSFELWLNAAKTNLDKYEMALIITATLGLRRGEVMGLRNESIKISHDQINDADVAQISIDMQRNTNELNGGPLKTKSSYRTIWAFGKTVDHLKYAMITADNLRQRNNIQAEKHWLWLNNDGNPLHPTHLNRLMRRVSNRSGVEVYPHLLRHYFATQAIAANKPQIDVMHYLGHKNLQMTADYTRSTKAASLNVFNSIDKFL | failed
2 | MGIYQWRDKKKPSGGKRRYYYKVKRKYAAGRPPTYTTLSAAEEEERKPVRARGGSYKIKAKKVAFAVVSNPKTGEARKARILRIVETPAHREYARRGIIVKGAVIDTTLGRAVVTSRPGQEGVVNAVLLEEQGQKQLEHHHHHH | not failed
3 | MPSETTEHKTGPAVTVVIVSYQSGPTLEPCLARLAAQTFRDFETILIDNFSTDGAPQAAAKAHPWVDFVEAGANLGFAAGNNLAARRAKGRWLVLLNPDAYAEPDWLEELMAGAARHPTVKSFASLQLSADRPGLLDGAGDNVTSAGIPFRGGYGRKPPAVLPEGEVFSACGAAMLIDRDLFLSVGGFDERYFCYCEDVDLGYRLRLYGEPTLLLPKAKVAHVGSASTGVRSDFSIFHGSRNRVWTFLKNTPGWLLPVTLPLHVAVTAGLLLLHWRRGDVAPAIRGIRAALKREDLDQVMADRRLIQARRKASPGAILRVMSIDPAAFIGRRFVIRKWRGA | failed
4 | YVTSQIHAKGSDLAKLMQIAALKGNEEVLDVATGGGHVANAFAPFVKKVVAFDLTEDILKVARAFIEGNGHQQVEYVQGDAEQLPFTDERFHIVTCRIAAHHFPNPASFVSEAYRVLKKGGQLLLVDNSAPENDAFDVFYNYVEKERDYSHHRAWKKSDWLKMLEEAGFELEELHCFHKTFIFEDWCDRMNVTTEKKQELSDFIKSKPTEYYQKFKIVVEDGRVYSFRGESILMKARKPTVKNKGSS | not failed
5 | MQRLQASLERRQVGIYFAAMALGAVLAWHRPGLQVGEATLNLMLAGMLLATFMQVPLAGWRATLPGMRFLGVLLSVNFVLVPALVWGLAALLPADPMIRLAVLLVLLAPCIDYVVTFAQLGRADARALLAATPVLLCGQMLLLPLYLNVMLGSDAAALIRPGPFVQAFVWLIALPLAAATGVQWAAARSAAWRGAASVVGLLPVPATALVLATIVAAVAPRMALAGEAVSRVVPVYLLFAVIAPAAGWLAARRARLAAPQARAVAFSAGTRNSLVVLPLALAVPGGVPLLPALIVAQTLVELCAELLYVRVFGRAGKDRAGEG | failed
6 | MILPWLILIPFIGGLLCWLGERFGATLPRWIALLTMTLELALGLWLWAHGNYSFAPAPGADPTWAIEFKHVWIERFGINVHLALDGLSLLMILLTGLLGILSVLCSWKEIQRHVGFFHLNLMWILGGVVGVFLALDLFMFFFFWEMMLVPMYFLIALWGHSSADGKKTRIYAATKFFIFTQASGLIMLVAILGLVLVNFNNTGVITFDYAQLLKTKMSTATEYILMLGFFIAFAVKLPVVPFHSWLPDAHAQAPTAGSVDLAGILLKTAAYGLLRFALPLFPNASAEFAPIAMTLGLIGIFYGAFLAFAQTDIKRLIAFSSVSHMGFVLIGIYSGSQQALQGAVIQMLAHGVSAAALFILSGQLYERTHTRDMREMGGLWSRIAYLPAISLFFAAASLGLPGTGNFVGEFLILIGTFVSAPWITAIATSGLVFGSVYSLIMIHRAYFGPSKSDAVLHGMDARELIMVLGLAVLLIYIGVYPQPFLDTSAATMHGVQQWLSTAFTQLASAR | failed
7 | MIQRTKAKVMGAPTPMAGLALGIASLGWSWENFAELHGYGQWISAGIASVLLVILATKFLLHNHLLREDLAHPVVGSVVPTFAMGTMVVSNSLGHFYPLAGDVLWLIAVVLHIVFLVSFVYHRAKDFELHHMVPSWFVPPVGIIVADVSFSGNPMLAPVAQGALTFGMVAYAIMLPMMIYRFMFTHEIPDAAKPTMAIMAAPASLSLAGYLTVTATPSPVIIAMLFGIAVLMTAIIYLAFFKLLRLPFSPGYAAFTFPMVIGATALFKMANWMELQGLAAHYVQQVRGLAGLELIVATFVVSYVALQYINNLLIQPRLMHAHHA | not failed
